# From US9766245B2, “Method of detecting cancer based on glycan biomarkers” (California Institute of Technology, priority 2013, dated 2017)
# “Also recorded” adds a separate entry of the source.
# B1: UEAI: lectin conjugated to agarose used for affinity chromatography (protein)
# chain: SDDLSFKFKNFSQNGKDLSFQGDASVIETGVLQLNKVGNNLPDETGGIARYIAPIHIWNCNTGEVASFITSFSFFMETSANPKAATDGLTFFLAPPDSPLRRAGGYFGLFEDTKDNDSSYQTVAVEFDTIGSPVNFDDPGFPHIGIDVNRVKSINAERWNKRYGLNNVANVEIIYEASSKTLTASLTYPSDQTSISVTSIVDLKEILPEWVSVGFSGGTYIGRQATHEVLNWYFTSNLINTNS
# System: glycosylated synapsin I
# Test: Lectin affinity chromatography with UEAI
# Type: binding, rat
# Conditions: olfactory bulb lysate (500 μg), Western blotting
# Protocol: Lectin Affinity Chromatography with UEAI.
# UEAI lectin conjugated to agarose (Vector Laboratories) or control protein A conjugated to agarose (Vector Laboratories) was packed into a minicolumn (50 μL bed volume; Bio-Rad), and the columns were run in parallel. The resin was equilibrated with 10 column volumes of lectin binding buffer (100 mM Tris pH 7.5, 150 mM NaCl, 1 mM CaCl2, 1 mM MgCl2, 0.5% NP-40, and 0.2% sodium deoxycholate supplemented with EDTA-free Complete™ protease inhibitors). Olfactory bulb tissue from P3 rat pups was lysed in lectin binding buffer by sonication on ice. The lysate was clarified by centrifugation at 12000×g for 10 min, and the total protein concentration was determined using the BCA protein assay (Pierce). Lysate (500 μg) was bound batch-wise with gentle end-over-end mixing at rt for 4 h. The agarose was then allowed to settle, and the flow-through was passed over the column three additional times. The columns were washed with 40 column volumes of lectin binding buffer, followed by 10 column volumes of lectin binding buffer lacking detergent. […] Following concentration, samples were boiled in 1× sample buffer (35 μL of 200 mM Tris pH 6.8, 400 mM DTT, 8% SDS, 0.2% bromophenol blue, and 40% glycerol) and analyzed by SDS-PAGE and western blotting as described above. Synapsin I was detected using mouse anti-synapsin I ascites (Synaptic Systems) at 0.1 μg/mL.
molecule,measurement,value
B1,capture and detection of glycosylated synapsin I,failed to pull-down and detect glycosylated synapsin I; also recorded: failed to capture and detect glycosylated synapsin I
